Measurements published in US9790262B2, “Compositions comprising glucagon analogs and methods of making and using the same” (LONGEVITY BIOTECH, INC., priority 2011, dated 2017).
Non-standard residues stand in square brackets, D forms with d. No end group written: not given here. APC = 3-aminopyrrolidine-4-carboxylic acid (cyclic beta amino acid); ACPC = 2-aminocyclopentanecarboxylic acid (cyclic beta amino acid); Aib = CC(C)(N)C(=O)O

Key:
GIP receptor = molecular target: T1, GIP receptor (UniProt P48546 22-466, limits assumed); assay: cell-based or functional assay
T1 sequence (looked up): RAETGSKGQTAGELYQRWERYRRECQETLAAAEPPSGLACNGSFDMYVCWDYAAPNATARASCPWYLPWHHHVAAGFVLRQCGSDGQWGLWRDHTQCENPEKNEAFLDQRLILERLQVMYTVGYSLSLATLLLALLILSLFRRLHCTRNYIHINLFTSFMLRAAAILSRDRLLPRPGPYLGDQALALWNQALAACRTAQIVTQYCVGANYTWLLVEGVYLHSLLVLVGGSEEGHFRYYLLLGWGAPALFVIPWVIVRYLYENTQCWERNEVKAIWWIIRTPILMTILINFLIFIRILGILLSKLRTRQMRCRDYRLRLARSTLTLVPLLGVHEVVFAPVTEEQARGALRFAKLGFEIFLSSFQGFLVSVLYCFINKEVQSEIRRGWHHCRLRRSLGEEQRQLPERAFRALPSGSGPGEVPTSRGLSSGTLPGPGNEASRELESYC

GIP receptor (GIPR) = molecular target: T2, GIP receptor (GIPR) (Homo sapiens, UniProt P48546); assay: cAMP Hunter agonist assay (DiscoveRx HitHunter cAMP XS+), GIPR cells; format: cell-based; details: read-out: Max Response
T2 sequence (P48546 22-466): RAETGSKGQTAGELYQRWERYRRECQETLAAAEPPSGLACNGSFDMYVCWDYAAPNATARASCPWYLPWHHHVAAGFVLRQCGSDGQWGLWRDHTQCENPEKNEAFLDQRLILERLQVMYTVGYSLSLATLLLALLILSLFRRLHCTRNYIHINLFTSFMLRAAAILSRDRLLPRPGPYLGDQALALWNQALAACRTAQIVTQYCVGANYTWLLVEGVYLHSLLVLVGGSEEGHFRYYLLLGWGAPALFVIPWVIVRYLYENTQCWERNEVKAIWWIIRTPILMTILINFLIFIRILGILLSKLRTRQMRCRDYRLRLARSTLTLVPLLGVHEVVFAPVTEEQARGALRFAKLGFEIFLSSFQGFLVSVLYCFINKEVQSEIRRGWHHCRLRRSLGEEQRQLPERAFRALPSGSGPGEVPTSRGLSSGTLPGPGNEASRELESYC
Protocol: Once it was established that the cells were healthy and growing normally, cells were passaged from flasks using cell dissociation reagent buffer and seeded into white walled clear bottom 384-well microplates for compound profiling. For profiling, cells were seeded at a density of 10,000 cells per well in a total volume of 20 μL and were allowed to adhere and recover overnight prior to compound addition. cAMP modulation was determined using the DiscoveRx HitHunter cAMP XS+ assay.
For profiling compound in agonist mode, the cells were incubated in the presence of compound at 37° C. for 30 minutes. […] After appropriate compound incubation, assay signal was generated through incubation with DiscoverX lysis cocktail according to the manufacturers standard protocol. Dose curves were plotted using GraphPad Prism or Activity Base. Percentage activity is calculated using the following formula: % Activity=100%×(mean RLU of test sample−mean RLU of vehicle control)/(mean RLU of MAX control−mean RLU of vehicle control).

[1] = Stability in human liver microsomes; details: for % of mass remaining in solution: 0.5 mg/mL human liver microsomes, 1 μM, 1 mM NADPH, 37° C.
Protocol: Human liver microsomes were prepared by Absorption Systems. A reaction mixture, minus NADPH, was prepared as described below. […] In parallel, a […]. The test compound was added into the reaction mixture (0.5 mg/mL human liver microsomes; 100 mM potassium phosphate; 5 mM Magnesium chloride) at a final concentration of 1 μM. An aliquot of the reaction mixture (without cofactor) was incubated in a shaking water bath at 37° C. for 3 minutes. […] The samples were then mixed and centrifuged to precipitate microsomal proteins. […] A thermo BDS Hypersil C18 column (30×2.0 mm; 3 μm) was used for chromatography at 300 μL/minute with an aqueous reservoir of 90% water and 10% buffer and an organic reservoir of 90% acetonitrile with 10% buffer (each 25 mM ammonium formate buffer at pH of 3.5). Test compound samples were analyzed by orbitrap. The peak area response ratio to internal standard (PARR) of the compounds at 10, 20, 30, and 60 minutes was compared to the PARR at time 0 to determine the percent of test compound remaining at each timepoint. After the final time point, fluorimetry is used to confirm the addition of NADPH to the reaction mixture. Half-life was normalized of control using internal acceptance criteria.
The mass spectrometry measurements of compound were taken at 0, 10, 20, 30, and 60 minutes after incubation of the compound with human liver microsomes at […] in solution at 37° C.
Intrinsic clearance (CLint) was calculated based upon CLint=k/P, where k is the elimination rate constant and P is the protein concentration in the incubation.

[2] = Stability in human plasma; format: in vitro ADME
Protocol: Studies of the 2010 peptide were carried out in human plasma. All plasma was obtained from Bioreclamation and collected on sodium heparin. DMSO stocks were first prepared for the test compounds. Aliquots of the DMSO solutions were dosed into 1 mL of plasma, which had been pre-warmed to 37° C., at a final test compound concentration of 1 μM. The vials were kept in a benchtop Thermomixer® for the duration of the experiment. Aliquots (100 μL) were taken at each timepoint (0, 15, 30, 60, and 120 minutes) and added to 96-well plates which had been pre-filled with 300 μL of acetonitrile. Samples were stored at 4° C. until the end of the experiment. After the final timepoint was sampled, the plate was mixed and then centrifuged at 3,000 rpm for 10 minutes. Aliquots of the supernatant were removed, diluted 1:1 into distilled water, and analyzed by LC-MS/MS.
Below is a table of data describing the stability of compounds exposed to human plasma with aliquot of compound dissolved in DMSO solution at 37° C. The pH of the plasma solution was adjusted to 7.4 and single replicants of aliquot were taken at 0, 15, 30, 60 and 120 minutes. LC-MS/MS was used to determine the percent mass of compound remaining in solution (% remaining).

GLP-1 receptor = GLP-1 receptor (UniProt P43220 24-463, limits assumed); assay: cell-based or functional assay

## wild-type GLP-1 (from UniProt P01275 92-128) (ligand)
GIP receptor
  cAMP agonist: Max Response: 2.66%

## CC[C@H](C)[C@H](NC(=O)[C@H](Cc1ccccc1)NC(=O)[C@H](CCC(=O)O)NC(=O)[C@H](CCCCN)NC(=O)[C@H](C)NC(=O)[C@H](C)NC(=O)[C@H](CCC(N)=O)NC(=O)CNC(=O)[C@H](CCC(=O)O)NC(=O)[C@H](CC(C)C)NC(=O)[C@H](Cc1ccc(O)cc1)NC(=O)[C@H](CO)NC(=O)[C@H](CO)NC(=O)[C@@H](NC(=O)[C@H](CC(=O)O)NC(=O)[C@H](CO)NC(=O)[C@@H](NC(=O)[C@H](Cc1ccccc1)NC(=O)[C@@H](NC(=O)CNC(=O)[C@H](CCC(=O)O)NC(=O)[C@H](C)NC(=O)[C@@H](N)Cc1c[nH]cn1)[C@@H](C)O)[C@@H](C)O)C(C)C)C(=O)N[C@@H](C)C(=O)N[C@@H](Cc1c[nH]c2ccccc12)C(=O)N[C@@H](CC(C)C)C(=O)N[C@H](C(=O)N[C@@H](CCCCN)C(=O)NCC(=O)N[C@@H](CCCNC(=N)N)C(N)=O)C(C)C [GLP1]
GIP receptor (GIPR)
  Emax: 2.66%

## C[C@]12CC[C@H]3[C@@H](CCC4=CC(=O)CC[C@@]43C)[C@@H]1CC[C@@H]2O [Testosterone, testosterone]
[1]; 0 mins.
  % of mass remaining in solution: 100%
[1]; 60 mins.
  % of mass remaining in solution: 4.8%
[1]; human, microsomes
  remaining at 10 min, 1 μM: 53%
  remaining at 0.5 h, 1 μM: 13%

## CC[C@H](C)[C@H](NC(=O)[C@H](CO)NC(=O)[C@H](Cc1ccc(O)cc1)NC(=O)[C@H](CC(=O)O)NC(=O)[C@H](CO)NC(=O)[C@@H](NC(=O)[C@H](Cc1ccccc1)NC(=O)[C@@H](NC(=O)CNC(=O)[C@H](CCC(=O)O)NC(=O)C(C)(C)NC(=O)[C@@H](N)Cc1ccc(O)cc1)[C@@H](C)O)[C@@H](C)O)C(=O)N[C@@H](Cc1ccc(O)cc1)C(=O)N[C@@H](CC(C)C)C(=O)N[C@@H](CC(=O)O)C(=O)N[C@@H](CCCCN)C(=O)N[C@@H](CCC(N)=O)C(=O)N[C@@H](C)C(=O)N[C@@H](C)C(=O)NC(C)(C)C(=O)N[C@@H](CCC(=O)O)C(=O)N[C@@H](Cc1ccccc1)C(=O)N[C@H](C(=O)N[C@@H](CC(N)=O)C(=O)N[C@@H](Cc1c[nH]c2ccccc12)C(=O)N[C@@H](CC(C)C)C(=O)N[C@@H](CC(C)C)C(=O)N[C@@H](C)C(=O)NCC(N)=O)C(C)C [compound 2000, YBEGT FTSDY SIYLD KQAAB EFVNW LLAG]
[2]; 0 mins., 1 μM, 37° C., pH 7.4
  % of mass remaining in solution: 100%
[2]; plasma (sodium heparin), 15 mins., 1 μM, 37° C., pH 7.4, read-out: % of mass remaining in solution
  remaining at 0.25 h, 1 μM: 101%
[2]; plasma (sodium heparin), 30 mins., 1 μM, 37° C., pH 7.4, read-out: % of mass remaining in solution
  remaining at 0.5 h, 1 μM: 99%
[2]; plasma (sodium heparin), 60 mins., 1 μM, 37° C., pH 7.4, read-out: % of mass remaining in solution
  remaining at 1 h, 1 μM: 95%
[2]; plasma (sodium heparin), 120 mins., 1 μM, 37° C., pH 7.4, read-out: % of mass remaining in solution
  remaining at 2 h, 1 μM: 98%
[2]; read-out: serum-half lives
  half-life: > 120 min
[1]; 0 mins.
  % of mass remaining in solution: 100%
[1]; human, microsomes
  half-life: 58 min
  microsomal CLint: 24 µL/min/mg
  remaining at 10 min, 1 μM: 95%
  remaining at 20 min, 1 μM: 78%
  remaining at 0.5 h, 1 μM: 72%
  remaining at 1 h, 1 μM: 50%

B1: 2004 (peptide)
peptide: YXEGTFTSDYSXYLXKQAXXEXVNWXLAX
modifications: B = alpha-aminoisobutyric acid (Aib) at positions 2 and 20; alpha-to-beta3 amino acid replacement(s) at the bold and underlined position(s) of the printed sequence, which this text does not show
GLP-1 receptor
  cAMP agonist EC50 (RC50 (uM)): > 1 µM
  cAMP agonist: Max Response: 2.68%
GIP receptor
  cAMP agonist: Curve Bottom: -0.8%
  cAMP agonist: Curve Top: 99.1%
  cAMP agonist: Max Response: 99.1%

B2: 2008 (peptide)
peptide: Y[Aib]EGTFTSDYSIYLD[APC]QA[ACPC][Aib]EF[ACPC]NW[ACPC]LAG
GLP-1 receptor
  cAMP agonist: Curve Bottom: 0.9%
  cAMP agonist: Curve Top: 84.4%
  cAMP agonist: Max Response: 84.5%
GIP receptor
  cAMP agonist: Curve Bottom: -0.6%
  cAMP agonist: Curve Top: 82.8%
  cAMP agonist: Max Response: 82.2%

B3: 2005 (peptide)
peptide: YXEGTFTSDYSIYXDKXAAXXFVXWLLXG
modifications: B = alpha-aminoisobutyric acid (Aib) at positions 2 and 20; alpha-to-beta3 amino acid replacement(s) at the bold and underlined position(s) of the printed sequence, which this text does not show
GLP-1 receptor
  cAMP agonist: Curve Bottom: 1.3%
  cAMP agonist: Curve Top: 91.1%
  cAMP agonist: Max Response: 95.7%
GIP receptor
  cAMP agonist: Curve Bottom: -2.6%
  cAMP agonist: Curve Top: 96.3%
  cAMP agonist: Max Response: 99.2%

B4: 2001 (peptide)
peptide: YXEGTFTSDYSXYLDXQAXXEFXNWXLAG
modifications: B = alpha-aminoisobutyric acid (Aib) at positions 2 and 20; alpha-to-beta3 amino acid replacement(s) at the bold and underlined position(s) of the printed sequence, which this text does not show
GLP-1 receptor
  cAMP agonist EC50 (RC50 (uM)): > 1 µM
  cAMP agonist: Max Response: 36.7%
GIP receptor
  cAMP agonist EC50 (RC50 (uM)): > 1 µM
  cAMP agonist: Max Response: 16.5%

B5: 2010 (peptide)
peptide: Y[Aib]EGTFTSDYSIYLDK[ACPC]AA[Aib][ACPC]FV[APC]WLL[ACPC]G
GLP-1 receptor
  cAMP agonist: Curve Bottom: 0.4%
  cAMP agonist: Curve Top: 82.4%
  cAMP agonist: Max Response: 82.1%
GIP receptor
  cAMP agonist: Curve Bottom: -0.3%
  cAMP agonist: Curve Top: 85.5%
  cAMP agonist: Max Response: 96.9%
